Test results: US20230407373A1 (priority 2020, published 2023)
Where two headings read alike, the source gives them in different places.

Test system: HCoV-OC43 gRNA and sgRNA
Assay type: binding
Conditions: OC43 Probe II, infected cells, tested against no-probe control

Molecule | target (unweighted spectral count) (12 hpi (type n_12_v)) | target (unweighted spectral count) (24 hpi (type n_24_v))
HNANPA3 (protein, UniProt P51991 1-378, looked up) Heterogeneous nuclear …: MEVKPPPGRPQPDSGRRRRRRGEEGHDPKEPEQLRKLFIGGLSFETTDDSLREHFEKWGTLTDCVVMRDPQTKRSRGFGFVTYSCVEEVDAAMCARPHKVDGRVVEPKRAVSREDSVKPGAHLTVKKIFVGGIKEDTEEYNLRDYFEKYGKIETIEVMEDRQSGKKRGFAFVTFDDHDTVDKIVVQKYHTINGHNCEVKKALSKQEMQSAGSQRGRGGGSGNFMGRGGNFGGGGGNFGRGGNFGGRGGYGGGGGGSRGSYGGGDGGYNGFGGDGGNYGGGPGYSSRGGYGGGGPGYGNQGGGYGGGGGYDGYNEGGNFGGGNYGGGGNYNDFGNYSGQQQSNYGPMKGGSFGGRSSGSPYGGGYGSGGGSGGYGSRRF | 14 | –
HNANPA0 (protein, UniProt Q13151 1-305, looked up) Heterogeneous nuclear …: MENSQLCKLFIGGLNVQTSESGLRGHFEAFGTLTDCVVVVNPQTKRSRCFGFVTYSNVEEADAAMAASPHAVDGNTVELKRAVSREDSARPGAHAKVKKLFVGGLKGDVAEGDLIEHFSQFGTVEKAEIIADKQSGKKRGFGFVYFQNHDAADKAAVVKFHPIQGHRVEVKKAVPKEDIYSGGGGGGSRSSRGGRGGRGRGGGRDQNGLSKGGGGGYNSYGGYGGGGGGGYNAYGGGGGGSSYGGSDYGNGFGGFGSYSQHQSSYGPMKSGGGGGGGGSSWGGRSNSGPYRGGYGGGGGYGGSSF | 5 | 7
DRX30 (protein, UniProt Q7L2E3 1-1194, looked up) ATP-dependent RNA helicase …: MFSLDSFRKDRAQHRQRQCKLPPPRLPPMCVNPTPGGTISRASRDLLKEFPQPKNLLNSVIGRALGISHAKDKLVYVHTNGPKKKKVTLHIKWPKSVEVEGYGSKKIDAERQAAAAACQLFKGWGLLGPRNELFDAAKYRVLADRFGSPADSWWRPEPTMPPTSWRQLNPESIRPGGPGGLSRSLGREEEEDEEEELEEGTIDVTDFLSMTQQDSHAPLRDSRGSSFEMTDDDSAIRALTQFPLPKNLLAKVIQIATSSSTAKNLMQFHTVGTKTKLSTLTLLWPCPMTFVAKGRRKAEAENKAAALACKKLKSLGLVDRNNEPLTHAMYNLASLRELGETQRRPCTIQVPEPILRKIETFLNHYPVESSWIAPELRLQSDDILPLGKDSGPLSDPITGKPYVPLLEAEEVRLSQSLLELWRRRGPVWQEAPQLPVDPHRDTILNAIEQHPVVVISGDTGCGKTTRIPQLLLERYVTEGRGARCNVIITQPRRISAVSVAQRVSHELGPSLRRNVGFQVRLESKPPSRGGALLFCTVGILLRKLQSNPSLEGVSHVIVDEVHERDVNTDFLLILLKGLQRLNPALRLVLMSATGDNERFSRYFGGCPVIKVPGFMYPVKEHYLEDILAKLGKHQYLHRHRHHESEDECALDLDLVTDLVLHIDARGEPGGILCFLPGWQEIKGVQQRLQEALGMHESKYLILPVHSNIPMMDQKAIFQQPPVGVRKIVLATNIAETSITINDIVHVVDSGLHKEERYDLKTKVSCLETVWVSRANVIQRRGRAGRCQSGFAYHLFPRSRLEKMVPFQVPEILRTPLENLVLQAKIHMPEKTAVEFLSKAVDSPNIKAVDEAVILLQEIGVLDQREYLTTLGQRLAHISTDPRLAKAIVLAAIFRCLHPLLVVVSCLTRDPFSSSLQNRAEVDKVKALLSHDSGSDHLAFVRAVAGWEEVLRWQDRSSRENYLEENLLYAPSLRFIHGLIKQFSENIYEAFLVGKPSDCTLASAQCNEYSEEEELVKGVLMAGLYPNLIQVRQGKVTRQGKFKPNSVTYRTKSGNILLHKSTINREATRLRSRWLTYFMAVKSNGSVFVRDSSQVHPLAVLLLTDGDVHIRDDGRRATISLSDSDLLRLEGDSRTVRLLKELRRALGRMVERSLRSELAALPPSVQEEHGQLLALLAELLRGPCGSFDVRKTADD | – | 10
